Article doi:10.1101/2024.01.22.576510 (bioRxiv, 2024)

Biological target: human Na+-taurocholate co-transporting polypeptide (NTCP), detergent-purified, tags cleaved (Homo sapiens, UniProt Q14973)
Assay: cryo-EM structure

Sequence of human Na+-taurocholate co-transporting polypeptide (NTCP), detergent-purified, tags cleaved (Q14973 whole entry): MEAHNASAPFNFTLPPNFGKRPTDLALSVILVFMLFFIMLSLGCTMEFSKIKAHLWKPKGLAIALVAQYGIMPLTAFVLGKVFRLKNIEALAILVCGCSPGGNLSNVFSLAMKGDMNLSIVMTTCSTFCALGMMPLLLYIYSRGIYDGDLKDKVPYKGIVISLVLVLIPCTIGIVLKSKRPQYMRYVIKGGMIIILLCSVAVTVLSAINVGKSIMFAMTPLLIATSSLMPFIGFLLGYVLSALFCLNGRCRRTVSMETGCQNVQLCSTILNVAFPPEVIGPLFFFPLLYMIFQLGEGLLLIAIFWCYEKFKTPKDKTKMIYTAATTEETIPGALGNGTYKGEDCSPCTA

- binding result: binds
B1: Fab3 (Fab, V domains shown)
VH: EVQLVESGGGLVQPGGSLRLSCAASGFNVSSSYIHWVRQAPGKGLEWVASISPYYSYTSYADSVKGRFTISADTSKNTAYLQMNSLRAEDTAVYYCARYQYDYYYSYYAGLDYWGQGTLVTVSS
VL: DIQMTQSPSSLSASVGDRVTITCRASQSVSSAVAWYQQKPGKAPKLLIYSASSLYSGVPSRFSGSRSGTDFTLTISSLQPEDFATYYCQQYRYSLITFGQGTKVEIK
